These results are taken from article PMC4371549 (The Biochemical journal, 2010).

Holding throughout (assay): resonant mirror detection
Test [1] addresses recombinant 4.1R^135 (135kDa isoform of protein 4.1R) (human, UniProt P11171 1-864).
In test [2] the target is full length recombinant human protein 4.1G (human, UniProt O43491 1-1005).
The target of test [3] is T1, complex of 4.1G and CaM (human | , UniProt O43491 1-1005; P0DP23 1-149).
Test [4] addresses T1, complex of 4.1G and CaM. This is another data set of the same source.

Read-outs that look alike come from different tables or passages of the source.

Chain of full length recombinant human protein 4.1G (O43491 whole entry): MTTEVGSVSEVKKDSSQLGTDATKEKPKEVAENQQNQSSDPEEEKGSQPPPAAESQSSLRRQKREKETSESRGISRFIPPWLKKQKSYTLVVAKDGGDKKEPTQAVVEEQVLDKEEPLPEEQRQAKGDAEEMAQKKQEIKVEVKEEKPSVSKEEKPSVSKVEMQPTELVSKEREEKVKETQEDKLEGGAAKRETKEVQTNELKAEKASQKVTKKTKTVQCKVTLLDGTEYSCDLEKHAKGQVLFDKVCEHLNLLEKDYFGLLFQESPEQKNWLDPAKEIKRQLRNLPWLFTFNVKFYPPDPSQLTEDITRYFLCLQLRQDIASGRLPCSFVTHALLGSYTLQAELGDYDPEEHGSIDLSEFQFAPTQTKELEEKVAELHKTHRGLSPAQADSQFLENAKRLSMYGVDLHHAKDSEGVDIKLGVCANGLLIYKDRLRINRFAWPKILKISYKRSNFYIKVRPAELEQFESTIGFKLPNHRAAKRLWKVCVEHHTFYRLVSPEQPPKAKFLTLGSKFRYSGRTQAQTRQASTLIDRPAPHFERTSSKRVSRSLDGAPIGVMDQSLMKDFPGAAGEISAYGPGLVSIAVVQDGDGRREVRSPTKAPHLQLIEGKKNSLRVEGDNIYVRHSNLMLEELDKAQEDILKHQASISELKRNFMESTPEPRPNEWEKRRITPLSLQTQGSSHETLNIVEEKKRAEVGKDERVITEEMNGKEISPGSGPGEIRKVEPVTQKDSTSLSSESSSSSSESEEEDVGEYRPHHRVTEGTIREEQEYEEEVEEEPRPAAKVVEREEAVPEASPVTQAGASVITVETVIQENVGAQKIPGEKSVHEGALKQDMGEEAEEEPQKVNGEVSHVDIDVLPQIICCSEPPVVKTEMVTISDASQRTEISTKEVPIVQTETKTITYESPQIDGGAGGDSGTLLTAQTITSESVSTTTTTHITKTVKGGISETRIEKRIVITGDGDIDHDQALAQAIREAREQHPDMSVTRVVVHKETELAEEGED
Chain of recombinant 4.1R^135 (135kDa isoform of protein 4.1R) (P11171 whole entry, canonical isoform): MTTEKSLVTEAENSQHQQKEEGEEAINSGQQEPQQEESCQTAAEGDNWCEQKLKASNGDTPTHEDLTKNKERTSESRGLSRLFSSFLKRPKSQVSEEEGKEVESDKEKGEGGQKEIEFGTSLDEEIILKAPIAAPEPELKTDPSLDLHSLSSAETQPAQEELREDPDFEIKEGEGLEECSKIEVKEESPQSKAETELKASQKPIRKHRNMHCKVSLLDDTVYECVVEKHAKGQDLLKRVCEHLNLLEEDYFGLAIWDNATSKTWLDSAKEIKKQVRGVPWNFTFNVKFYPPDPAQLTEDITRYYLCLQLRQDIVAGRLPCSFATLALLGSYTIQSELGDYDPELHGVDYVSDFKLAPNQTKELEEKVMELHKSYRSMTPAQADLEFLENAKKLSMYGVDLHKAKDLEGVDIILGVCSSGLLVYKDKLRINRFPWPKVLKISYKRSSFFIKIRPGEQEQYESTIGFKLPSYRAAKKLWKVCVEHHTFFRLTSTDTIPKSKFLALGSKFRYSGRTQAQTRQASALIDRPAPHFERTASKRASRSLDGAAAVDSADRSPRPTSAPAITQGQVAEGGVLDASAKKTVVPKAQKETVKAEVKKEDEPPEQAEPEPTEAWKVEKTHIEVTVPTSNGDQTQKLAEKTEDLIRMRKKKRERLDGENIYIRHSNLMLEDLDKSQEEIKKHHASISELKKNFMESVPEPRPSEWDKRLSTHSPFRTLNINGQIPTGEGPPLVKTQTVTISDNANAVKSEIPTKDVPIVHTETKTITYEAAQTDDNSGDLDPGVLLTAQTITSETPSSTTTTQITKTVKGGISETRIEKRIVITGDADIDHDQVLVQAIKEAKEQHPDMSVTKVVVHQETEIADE

B1: p55 (natural protein, UniProt Q00013 1-466, looked up)
chain: MTLKASEGESGGSMHTALSDLYLEHLLQKRSRPEAVSHPLNTVTEDMYTNGSPAPGSPAQVKGQEVRKVRLIQFEKVTEEPMGITLKLNEKQSCTVARILHGGMIHRQGSLHVGDEILEINGTNVTNHSVDQLQKAMKETKGMISLKVIPNQQSRLPALQMFMRAQFDYDPKKDNLIPCKEAGLKFATGDIIQIINKDDSNWWQGRVEGSSKESAGLIPSPELQEWRVASMAQSAPSEAPSCSPFGKKKKYKDKYLAKHSSIFDQLDVVSYEEVVRLPAFKRKTLVLIGASGVGRSHIKNALLSQNPEKFVYPVPYTTRPPRKSEEDGKEYHFISTEEMTRNISANEFLEFGSYQGNMFGTKFETVHQIHKQNKIAILDIEPQTLKIVRTAELSPFIVFIAPTDQGTQTEALQQLQKDSEAIRSQYAHYFDLSLVNNGVDETLKKLQEAFDQACSSPQWVPVSWVY
Consider B1, for which, in test [1], the Kd was determined as 248 nM, the koff came to 0.0047 s⁻¹ and the kon amounted to 19000 M⁻¹ s⁻¹. In addition, in test [2], the Kd came to 181 nM, the koff is 0.0085 s⁻¹ and the kon was found to be 47000 M⁻¹ s⁻¹.

B2: cytoplasmic domain of band 3 (domain or fragment, UniProt P02730 1-403, looked up)
chain: MEELQDDYEDMMEENLEQEEYEDPDIPESQMEEPAAHDTEATATDYHTTSHPGTHKVYVELQELVMDEKNQELRWMEAARWVQLEENLGENGAWGRPHLSHLTFWSLLELRRVFTKGTVLLDLQETSLAGVANQLLDRFIFEDQIRPQDREELLRALLLKHSHAGELEALGGVKPAVLTRSGDPSQPLLPQHSSLETQLFCEQGDGGTEGHSPSGILEKIPPDSEATLVLVGRADFLEQPVLGFVRLQEAAELEAVELPVPIRFLFVLLGPEAPHIDYTQLGRAAATLMSERVFRIDAYMAQSRGELLHSLEGFLDCSLVLPPTDAPSEQALLSLVPVQRELLRRRYQSSPAKPDSSFYKGLDLNGGPDDPLQQTGQLFGGLVRDIRRRYPYYLSDITDAFSP
As for B2, the equilibrium dissociation constant (Kd) turned out to be 127 nM with complex of 4.1G and CaM [3]; 23 nM in test [1]; 185 nM in test [2]. For the same molecule, the koff with complex of 4.1G and CaM [3] came to 0.064 s⁻¹; in test [1], 0.0071 s⁻¹; in test [2], 0.014 s⁻¹. Moreover, the kon with complex of 4.1G and CaM [3] was 510000 M⁻¹ s⁻¹; in test [1], 310000 M⁻¹ s⁻¹; in test [2] it was 80000 M⁻¹ s⁻¹.

In the test with complex of 4.1G and CaM [4], RYMYRHKGTYHTNEAKGTEFAESADAALQGDPALQDAGDSSRKEYFI (domain or fragment, UniProt P04921 82-128, looked up) [cytoplasmic domain of glycophorin C] gave a Kd of 1250 nM, a koff of 0.015 s⁻¹ and a kon of 12000 M⁻¹ s⁻¹. In the test with complex of 4.1G and CaM [3], the Kd worked out at 155 nM, the off-rate (koff) was 0.013 s⁻¹ and the kon was 84000 M⁻¹ s⁻¹.

B3: cytoplasmic domain of CD44 (domain or fragment, UniProt P16070 671-742, looked up)
chain: NSRRRCGQKKKLVINSGNGAVEDRKPSGLNGEASKSQEMVHLVNKESSETPDQFMTADETRNLQNVDMKIGV
For the molecule B3, the Kd with complex of 4.1G and CaM [3] was 197 nM; in test [1] it was 329 nM; in test [2], 178 nM. The koff worked out at 0.014 s⁻¹ with complex of 4.1G and CaM [3]; 0.015 s⁻¹ in test [1]; 0.0066 s⁻¹ in test [2]. In addition, the kon with complex of 4.1G and CaM [3] came to 71000 M⁻¹ s⁻¹; in test [1], 42000 M⁻¹ s⁻¹; in test [2], 38000 M⁻¹ s⁻¹.
